Assay results from article PMC7105676.

Target: T1, FlhF-His6 (Campylobacter jejuni 81-176?) (UniProt O52908)
T1 sequence: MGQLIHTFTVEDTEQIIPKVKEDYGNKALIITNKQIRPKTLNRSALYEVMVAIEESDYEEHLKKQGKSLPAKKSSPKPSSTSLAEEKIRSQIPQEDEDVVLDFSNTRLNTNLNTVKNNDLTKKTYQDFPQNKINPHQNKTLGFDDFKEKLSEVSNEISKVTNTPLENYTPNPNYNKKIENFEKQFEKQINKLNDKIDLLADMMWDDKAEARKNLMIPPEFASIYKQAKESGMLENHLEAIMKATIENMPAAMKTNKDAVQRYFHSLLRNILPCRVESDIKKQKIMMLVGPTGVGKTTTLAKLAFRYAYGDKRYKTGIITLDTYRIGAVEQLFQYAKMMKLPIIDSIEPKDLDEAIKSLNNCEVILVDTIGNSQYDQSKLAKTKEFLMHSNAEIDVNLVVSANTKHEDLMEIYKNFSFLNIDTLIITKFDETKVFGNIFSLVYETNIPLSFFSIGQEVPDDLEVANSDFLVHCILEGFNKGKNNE
Assay: EMSA

Row | Sequence | binding
1 | TGCCTGCAGGTCGACGATGCTTTTACGCTTCTTAACTTACTTGGAACACTTCTTGCTTGATCTATCATCAACAATAGATTAAAGGAAGAATCCA (double strand) [PflgI fragment 5] | no binding
2 | TGCCTGCAGGTCGACGATTGCAGATGCAAACATTAAAAATCCTTTAAATTTAGAATTCTTAGGTCATTTAAGCGCTTCTAAAGATGTAAGTGGTAGTATTAAAAAAAGAACTTTATTTAGCGATGAAAACACAGCCTCAAGTGATGAGATTAAAGCCCTAGCTTCCAAGCTTTTATATAGATTGGAACGGAAAGTGCTTGATA (double strand) [fliA promoter] | binds
3 | TTTAAATCCTTTTAAATAATTTCAAACTCATCCATGAGCTTGTTAAATGCTATATCGTTACTTTTTTTAAAAATTTATACCTTAAACTAAAAAATTATAAATATCGCATTTTAATTGGAATCTGCAAATAAAAATTTCAAGCCACTGTTTATAAAATGTCAAGTATATTAATAAATACTCTCTTTCATCTTCAATTATCGTCGACCTGCAGGCA (double strand) [flaA promoter] | no binding
4 | TGCCTGCAGGTCGACGATGGGTGTGATTTTGGTAATTTTCATTACACAAAAGACCAAAGCTTCATAAACTCCCAAAATACCTTTAAATTTTTTCTATAAATTTTTAAAAAATTTCAAAAGTTGGAACAGAACTTGCTTGTAAACTTCACATAAACGCAAAAGTTTTTTAAAGCCAAAGCGTTAAATTTTTTAAAGCAATATTTTATAAAGGATTTAAGA (double strand) [flgE promoter] | no binding
5 | ATAACGCCATTAATCCCCACTACACCACTTTTACACATATCTTCAGAAATAGCTCTTCTTTTCGTGATATTAACTACATTTAAAAATTTATCTACTCTCATAAAAGCAATTTTAGCAAAAAAAATCAATTTTTGGAACAAAATTTGCTTATGCCTTTGCTTTATTTTTTAAGAAAATAGCAAGTAAAAACTTTTCTTTAATGAAATTTGGATACAATTTTACAATTTTCAAATCTATTTTAACAAAGGATATCGTCGACCTGCAGGCA (double strand) [rpoN promoter] | no binding
6 | TGGATTCTTCCTTTAATCTATTGTTGATGATAGATCAAGCAAGAAGTGTTCCAAGTAAGTTAAGAAGCGTAAAAGCTTAAGCTAGTTGATCCAAATTTCTTTTCTTTGACTTTTTGAAAATTTTGGATCGTCGACCTGCAGGCA (double strand) [PflgI fragment 3] | binds
7 | TGCCTGCAGGTCGACGATAAGAAATTTGGATCAACTAGCTTAAGCTTTTACGCTTCTTAACTTACTTGGAACACTTCTTGCTTGATCTATCATCAACAATAGATTAAAGGAAGAATCCA (double strand) [PflgI fragment 4] | binds
8 | CTTTTAAATCCTTTCAAAATATTGCATCGAAAAGATTAAAGCAAGAAGTGTTCCAAGTTTTAATTTGATTAAAAATTTTAAAGCTTATAAATAAAAAGCCTAGTATTTAAACTAGGCTTGGATTTGTATAAATTGCAGCATTCTTAAAAGAATGTAAAGTGATTTTAAGATTTAACTATTGTAATCGTCGACCTGCAGGCA (double strand) [flaB promoter] | no binding
9 | TGCCTGCAGGTCGACGATAATTTAATCATTTTTGAACACCACTCAACCATAAAAACTCCCGAAAAAATCCAAAATTTTCAAAAAGTCAAAGAAAAGAAATTTGGATCAACTAGCTTAAGCTTTTACGCTTCTTAACTTACTTGGAACACTTCTTGCTTGATCTATCATCAACAATAGATTAAAGGAAGAATCCA (double strand) [PflgI fragment 1] | binds
10 | TGCCTGCAGGTCGACGATAGAAAATTTAGATTTAAAGACTTTAAATTTAATCATTTTTGAACACCACTCAACCATAAAAACTCCCGAAAAAATCCAAAATTTTCAAAAAGTCAAAGAAAAGAAATTTGGATCAACTAGCTTAAGCTTTTACGCTTCTTAACTTACTTGGAACACTTCTTGCTTGATCTATCATCAACAATAGATTAAAGGAAGAATCCA (double strand) [flgI promoter (PflgI, 201 bp)] | binds
11 | TTCTTTGACTTTTTGAAAATTTTGGATTTTTTCGGGAGTTTTTATGGTTGAGTGGTGTTCAAAAATGATTAAATTTAAAGTCTTTAAATCTAAATTTTCTATCGTCGACCTGCAGGCA (double strand) [PflgI fragment 6] | no binding
12 | AAGCTCTATCAAAAGAAGTTTTAAAAACGCATCCTTATCTAAGGTAGCGTTTGGATTGCTCACTATTCCTGAGCTACTGCTTGAATCTGTTCTAGTTGTCCCACTAGTACTTCCTGAAGAAGTAGTACCTGAAGTTGTAGCAGTGGTATTTAAATTCCAATCCGATGATGATATCATTATAAACTCCTTTTTATTTAGTTTTTTATTATTTAAGCAATAAGTGTTCCAATTATCGTCGACCTGCAGGCA (double strand) [fliK promoter] | no binding
13 | TGCCTGCAGGTCGACGATCAACCATAAAAACTCCCGAAAAAATCCAAAATTTTCAAAAAGTCAAAGAAAAGAAATTTGGATCAACTAGCTTAAGCTTTTACGCTTCTTAACTTACTTGGAACACTTCTTGCTTGATCTATCATCAACAATAGATTAAAGGAAGAATCCA (double strand) [PflgI fragment 2] | binds
14 | TGCCTGCAGGTCGACGATACCAGTTTCACCACTCGGGCTCATTTTTAAGATTTAAAGCTAAAATTATACTTTTTTAGGCTAAAAAATAACTTTAAAAATAAAAAGTATTTTCAAAAAGACGATATAAAATTATATAATTTAAATTTTTGGAACAGTTATTGCTTTTGTTTATTAGCAATATTTGAAAAGATTTTAACTTTAATACTTTAGAGGAAA (double strand) [flgL promoter] | no binding
15 | TCATTTATCATTCCTCTAATAAAATCTTAAAATCATTCAAATCAAGTAAAAGCAAATTCTGTTCGCATATTTTATCAAATTCCTTGCTAAAACCATTTTTTGAGATTATAATGTAATAATTTGGAGCCAAATTTAAAGACTTTGCTTTTGATTTTAAAAGATTTAAAATATTTTTACAAATTTTTTTATTTTATCGTCGACCTGCAGGCA (double strand) [flgS promoter] | binds
16 | AATTCATCCTAAGCCTTTTAAAAAATTTCTGCTATGGTATCCAATTTGCGCTTAATTTTGAATTTACTTTTTTTTAAGTATAATAAATTATCGCATTTTGTTCGCCAAATTCCACGGTAAAACGCAAGGGTAAAATTTTGACATAAGTTTCGCTTTGGGCATGTAATAAGTCAGTATTAACAATATCCTTAACACTGATTCTAGCTCCATCGTCGACCTGCAGGCA (double strand) [flgR promoter] | no binding
17 | TGCCTGCAGGTCGACGATAAATATCGACCTAAAGCGTAAATTTTATACCTTAAAAAGAAAAAATTATAATTTTAACAGAGCTTTAGAAAAATTTGAAAAAATATTCAAATCATAAACATAATAACCGATTTATATAGAAAGTTAAGCAATTTTTAGATAAAATCCAAAGCTTATATAAATTTCAAGGATAATCAA (double strand) [rpoD promoter] | binds
